Measurements: PMC9482650, “Quantitative fragmentomics allow affinity mapping of interactomes” (Nature Communications, 2022)

T1: SNTG2, Q9NY99
T1 sequence (Q9NY99 68-166, limits assumed, looked up): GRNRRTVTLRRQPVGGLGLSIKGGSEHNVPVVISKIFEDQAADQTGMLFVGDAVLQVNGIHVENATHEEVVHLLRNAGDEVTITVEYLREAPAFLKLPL

T2: NHERF3_1, Q5T2W1
T2 sequence (Q5T2W1 4-100, limits assumed, looked up): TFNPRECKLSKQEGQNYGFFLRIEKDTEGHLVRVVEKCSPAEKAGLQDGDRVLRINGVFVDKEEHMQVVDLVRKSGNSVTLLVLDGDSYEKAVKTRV

T3: PARD3B_1, Q8TEW8
T3 sequence (Q8TEW8 196-299, limits assumed, looked up): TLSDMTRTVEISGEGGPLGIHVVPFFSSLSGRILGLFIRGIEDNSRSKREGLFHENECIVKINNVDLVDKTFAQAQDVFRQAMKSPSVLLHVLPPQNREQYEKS

T4: LRRC7, Q96NW7
T4 sequence (Q96NW7 1440-1537, limits assumed, looked up): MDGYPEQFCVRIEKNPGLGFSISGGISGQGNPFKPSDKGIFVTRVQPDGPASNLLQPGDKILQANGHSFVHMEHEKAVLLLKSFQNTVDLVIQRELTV

T5: SNTG1, Q9NSN8
T5 sequence (Q9NSN8 52-150, limits assumed, looked up): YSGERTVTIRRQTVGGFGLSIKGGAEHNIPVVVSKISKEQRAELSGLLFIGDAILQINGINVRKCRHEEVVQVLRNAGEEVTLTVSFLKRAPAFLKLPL

T6: NHERF3_3, Q5T2W1
T6 sequence (Q5T2W1 238-333, limits assumed, looked up): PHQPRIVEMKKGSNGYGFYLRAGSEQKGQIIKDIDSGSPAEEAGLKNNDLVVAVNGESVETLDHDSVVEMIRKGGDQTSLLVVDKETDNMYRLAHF

T7: TIAM2, Q8IVF5
T7 sequence (Q8IVF5 885-986, limits assumed, looked up): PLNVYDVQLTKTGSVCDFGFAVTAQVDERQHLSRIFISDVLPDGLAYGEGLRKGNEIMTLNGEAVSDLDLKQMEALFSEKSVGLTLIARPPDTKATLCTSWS

T8: MPP6, Q9NZW5
T8 sequence (Q9NZW5 125-219, limits assumed, looked up): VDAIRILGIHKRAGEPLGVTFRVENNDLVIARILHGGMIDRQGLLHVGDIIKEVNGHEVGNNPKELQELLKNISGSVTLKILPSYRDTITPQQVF


Legend:
Assay in all cases: holdup assay
Design in all cases: key: below the threshold = too weak to quantify, mostly under pKd 3.1 to 4
Conditions in all cases: plain residues with an end cap or a label only (N-terminal biotin on a linker: ado-ado)
GRASP, Q7Z6J2 = biological target: GRASP, Q7Z6J2
Chain of GRASP, Q7Z6J2 (Q7Z6J2 96-193): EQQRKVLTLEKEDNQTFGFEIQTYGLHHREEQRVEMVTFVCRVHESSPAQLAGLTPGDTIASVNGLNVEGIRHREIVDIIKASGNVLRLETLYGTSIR

DLG4_2, P78352 = biological target: DLG4_2, P78352
Chain of DLG4_2, P78352 (P78352 155-259): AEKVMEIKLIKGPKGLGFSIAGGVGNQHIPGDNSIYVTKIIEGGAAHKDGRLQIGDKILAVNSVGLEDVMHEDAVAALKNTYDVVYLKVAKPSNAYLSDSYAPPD

Inadl_3, Q8NI35 = biological target: Inadl_3, Q8NI35
Chain of Inadl_3, Q8NI35 (Q8NI35 359-469): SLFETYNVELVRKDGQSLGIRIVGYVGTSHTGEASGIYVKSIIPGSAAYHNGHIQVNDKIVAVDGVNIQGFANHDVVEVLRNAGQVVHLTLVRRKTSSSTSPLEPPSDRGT

TJP1_3, Q07157 = biological target: TJP1_3, Q07157
Chain of TJP1_3, Q07157 (Q07157 416-512): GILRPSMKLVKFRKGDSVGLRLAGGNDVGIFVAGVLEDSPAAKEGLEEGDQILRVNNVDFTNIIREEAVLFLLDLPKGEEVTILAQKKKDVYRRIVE

SCRIB_3, Q14160 = biological target: SCRIB_3, Q14160
Chain of SCRIB_3, Q14160 (Q14160 999-1103): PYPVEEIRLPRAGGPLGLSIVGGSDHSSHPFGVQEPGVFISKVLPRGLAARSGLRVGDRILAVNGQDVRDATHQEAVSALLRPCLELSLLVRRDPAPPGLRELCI

SNTG2, Q9NY99 = biological target: T1, SNTG2, Q9NY99
ARHGEF12, Q9NZN5-2 = biological target: ARHGEF12, Q9NZN5-2
Chain of ARHGEF12, Q9NZN5-2 (Q9NZN5 other isoform, or with tags, fused parts or gaps): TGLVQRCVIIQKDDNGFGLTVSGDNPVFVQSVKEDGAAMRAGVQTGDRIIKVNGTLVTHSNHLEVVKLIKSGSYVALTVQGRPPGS

GRIP2_6, Q9C0E4 = biological target: GRIP2_6, Q9C0E4
Chain of GRIP2_6, Q9C0E4 (Q9C0E4 648-740): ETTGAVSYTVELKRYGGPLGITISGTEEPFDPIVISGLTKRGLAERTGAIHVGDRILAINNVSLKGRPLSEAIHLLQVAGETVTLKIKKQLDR

DLG1_2, Q12959 = biological target: DLG1_2, Q12959
Chain of DLG1_2, Q12959 (Q12959 314-412): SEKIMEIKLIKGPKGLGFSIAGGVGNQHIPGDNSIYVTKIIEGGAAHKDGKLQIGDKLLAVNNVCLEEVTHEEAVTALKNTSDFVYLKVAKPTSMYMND

NHERF3_1, Q5T2W1 = biological target: T2, NHERF3_1, Q5T2W1
PARD3B_1, Q8TEW8 = biological target: T3, PARD3B_1, Q8TEW8
Inadl_1, Q8NI35 = biological target: Inadl_1, Q8NI35
Chain of Inadl_1, Q8NI35 (Q8NI35 113-229): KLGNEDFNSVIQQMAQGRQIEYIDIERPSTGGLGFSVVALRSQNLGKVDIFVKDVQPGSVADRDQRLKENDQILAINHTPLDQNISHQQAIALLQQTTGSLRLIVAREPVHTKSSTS

PTPN3, P26045 = biological target: PTPN3, P26045
Chain of PTPN3, P26045 (P26045 505-587): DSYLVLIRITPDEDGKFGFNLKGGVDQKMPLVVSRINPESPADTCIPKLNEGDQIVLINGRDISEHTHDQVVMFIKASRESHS

DLG1_3, Q12959 = biological target: DLG1_3, Q12959
Chain of DLG1_3, Q12959 (Q12959 457-571): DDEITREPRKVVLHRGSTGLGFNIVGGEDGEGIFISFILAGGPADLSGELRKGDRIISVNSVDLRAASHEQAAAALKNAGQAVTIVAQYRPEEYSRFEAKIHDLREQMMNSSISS

LRRC7, Q96NW7 = biological target: T4, LRRC7, Q96NW7
LAP2, Q96RT1 = biological target: LAP2, Q96RT1
Chain of LAP2, Q96RT1 (Q96RT1 other isoform, or with tags, fused parts or gaps): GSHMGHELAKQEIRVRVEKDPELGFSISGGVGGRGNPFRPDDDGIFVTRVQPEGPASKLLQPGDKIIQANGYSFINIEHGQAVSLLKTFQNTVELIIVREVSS

LDB3, O75112 = biological target: LDB3, O75112
Chain of LDB3, O75112 (O75112 1-94): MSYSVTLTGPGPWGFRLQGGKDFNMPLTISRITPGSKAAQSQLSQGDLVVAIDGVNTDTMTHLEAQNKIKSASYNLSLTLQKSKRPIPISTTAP

IL16_4, Q14005 = biological target: IL16_4, Q14005
Chain of IL16_4, Q14005 (Q14005 1229-1329): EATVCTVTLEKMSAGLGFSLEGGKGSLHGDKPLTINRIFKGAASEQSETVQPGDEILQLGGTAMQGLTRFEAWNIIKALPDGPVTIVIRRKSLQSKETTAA

SNTG1, Q9NSN8 = biological target: T5, SNTG1, Q9NSN8
PARD3_3, Q8TEW0 = biological target: PARD3_3, Q8TEW0
Chain of PARD3_3, Q8TEW0 (Q8TEW0 582-685): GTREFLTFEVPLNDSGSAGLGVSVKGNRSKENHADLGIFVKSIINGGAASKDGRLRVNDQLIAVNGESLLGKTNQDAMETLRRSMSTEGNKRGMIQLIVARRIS

PICK1, Q9NRD5 = biological target: PICK1, Q9NRD5
Chain of PICK1, Q9NRD5 (Q9NRD5 17-115): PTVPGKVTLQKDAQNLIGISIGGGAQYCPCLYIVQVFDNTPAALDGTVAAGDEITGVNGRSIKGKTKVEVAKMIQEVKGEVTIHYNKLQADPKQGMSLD

NHERF3_3, Q5T2W1 = biological target: T6, NHERF3_3, Q5T2W1
MAST2, Q6P0Q8 = biological target: MAST2, Q6P0Q8
Chain of MAST2, Q6P0Q8 (Q6P0Q8 1099-1202): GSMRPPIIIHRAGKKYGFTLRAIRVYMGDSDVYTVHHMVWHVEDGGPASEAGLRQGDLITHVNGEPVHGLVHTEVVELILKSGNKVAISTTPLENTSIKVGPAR

TIAM2, Q8IVF5 = biological target: T7, TIAM2, Q8IVF5
IL16_1, Q14005 = biological target: IL16_1, Q14005
Chain of IL16_1, Q14005 (Q14005 210-306): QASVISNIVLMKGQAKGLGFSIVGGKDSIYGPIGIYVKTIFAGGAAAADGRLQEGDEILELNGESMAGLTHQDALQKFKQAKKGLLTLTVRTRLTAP

MPP6, Q9NZW5 = biological target: T8, MPP6, Q9NZW5
SCRIB_1, Q14160 = biological target: SCRIB_1, Q14160
Chain of SCRIB_1, Q14160 (Q14160 718-814): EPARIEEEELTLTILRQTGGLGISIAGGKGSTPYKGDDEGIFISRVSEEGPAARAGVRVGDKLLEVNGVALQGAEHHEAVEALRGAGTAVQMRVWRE

LIMK2, P53671 = biological target: LIMK2, P53671
Chain of LIMK2, P53671 (P53671 143-248): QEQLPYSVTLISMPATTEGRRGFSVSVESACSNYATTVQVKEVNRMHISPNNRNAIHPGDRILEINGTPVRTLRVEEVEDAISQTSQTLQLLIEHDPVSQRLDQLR

DLG4_3, P78352 = biological target: DLG4_3, P78352
Chain of DLG4_3, P78352 (P78352 306-403): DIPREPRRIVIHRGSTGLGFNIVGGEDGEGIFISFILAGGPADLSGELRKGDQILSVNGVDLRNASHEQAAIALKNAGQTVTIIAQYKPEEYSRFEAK

NHERF4_4, Q86UT5 = biological target: NHERF4_4, Q86UT5
Chain of NHERF4_4, Q86UT5 (Q86UT5 464-550): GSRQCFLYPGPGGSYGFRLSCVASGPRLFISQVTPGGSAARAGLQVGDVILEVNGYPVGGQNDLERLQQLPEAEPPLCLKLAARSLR

Row | pKd (GRASP, Q7Z6J2) | pKd (DLG4_2, P78352) | pKd (Inadl_3, Q8NI35) | pKd (TJP1_3, Q07157) | pKd (SCRIB_3, Q14160) | pKd (SNTG2, Q9NY99) | pKd (ARHGEF12, Q9NZN5-2) | pKd (GRIP2_6, Q9C0E4) | pKd (DLG1_2, Q12959) | pKd (NHERF3_1, Q5T2W1) | pKd (PARD3B_1, Q8TEW8) | pKd (Inadl_1, Q8NI35) | pKd (PTPN3, P26045) | pKd (DLG1_3, Q12959) | pKd (LRRC7, Q96NW7) | pKd (LAP2, Q96RT1) | pKd (LDB3, O75112) | pKd (IL16_4, Q14005) | pKd (SNTG1, Q9NSN8) | pKd (PARD3_3, Q8TEW0) | Binder | further results
1 | below the threshold | 4.55 | below the threshold | below the threshold | 4.88 | 4.81 | 4.4 | below the threshold | 4.64 | 5.07 | below the threshold | below the threshold | 4.8 | 3.77 | below the threshold | 3.69 | below the threshold | below the threshold | 4.94 | 3.78 | SKENVQETQI [LRRC4B, Q9NT99] | pKd (PICK1, Q9NRD5): below the threshold; pKd (NHERF3_3, Q5T2W1): below the threshold; pKd (MAST2, Q6P0Q8): 5.56; pKd (TIAM2, Q8IVF5): 4.1; pKd (IL16_1, Q14005): below the threshold; pKd (MPP6, Q9NZW5): below the threshold; pKd (SCRIB_1, Q14160): 4.93; pKd (LIMK2, P53671): below the threshold; pKd (DLG4_3, P78352): below the threshold; pKd (NHERF4_4, Q86UT5): below the threshold
2 | 3.77 | 3.59 | below the threshold | below the threshold | 3.67 | below the threshold | 3.75 | 3.52 | below the threshold | 5.39 | below the threshold | 3.48 | 4.35 | below the threshold | below the threshold | 3.5 | below the threshold | 3.64 | 3.54 | below the threshold | EVNETDDTKM [KCNJ1, P48048] | pKd (PICK1, Q9NRD5): 4.17; pKd (NHERF3_3, Q5T2W1): below the threshold; pKd (MAST2, Q6P0Q8): 4.83; pKd (TIAM2, Q8IVF5): below the threshold; pKd (IL16_1, Q14005): below the threshold; pKd (MPP6, Q9NZW5): below the threshold; pKd (SCRIB_1, Q14160): below the threshold; pKd (LIMK2, P53671): below the threshold; pKd (DLG4_3, P78352): below the threshold; pKd (NHERF4_4, Q86UT5): below the threshold
3 | below the threshold | 3.85 | below the threshold | below the threshold | below the threshold | below the threshold | 3.66 | below the threshold | below the threshold | below the threshold | below the threshold | below the threshold | 3.93 | 3.81 | below the threshold | below the threshold | below the threshold | 3.69 | below the threshold | below the threshold | TPPAAKKSRI [BAZ1A, Q9NRL2] | pKd (PICK1, Q9NRD5): below the threshold; pKd (NHERF3_3, Q5T2W1): below the threshold; pKd (MAST2, Q6P0Q8): below the threshold; pKd (TIAM2, Q8IVF5): below the threshold; pKd (IL16_1, Q14005): below the threshold; pKd (MPP6, Q9NZW5): below the threshold; pKd (SCRIB_1, Q14160): below the threshold; pKd (LIMK2, P53671): below the threshold; pKd (DLG4_3, P78352): below the threshold; pKd (NHERF4_4, Q86UT5): below the threshold
4 | below the threshold | 3.54 | below the threshold | below the threshold | 4.97 | 4.95 | 4.43 | below the threshold | 3.93 | 6.04 | 3.89 | below the threshold | 5.21 | 3.53 | below the threshold | 3.52 | below the threshold | below the threshold | 4 | below the threshold | NLSIEKETKL [ASNSD1, Q9NWL6] | pKd (PICK1, Q9NRD5): 3.95; pKd (NHERF3_3, Q5T2W1): 4.67; pKd (MAST2, Q6P0Q8): 5.62; pKd (TIAM2, Q8IVF5): 3.94; pKd (IL16_1, Q14005): below the threshold; pKd (MPP6, Q9NZW5): below the threshold; pKd (SCRIB_1, Q14160): 4.3; pKd (LIMK2, P53671): below the threshold; pKd (DLG4_3, P78352): below the threshold; pKd (NHERF4_4, Q86UT5): below the threshold
5 | below the threshold | 4.43 | below the threshold | below the threshold | 3.55 | below the threshold | 4.56 | below the threshold | 4.55 | below the threshold | below the threshold | below the threshold | 3.65 | below the threshold | below the threshold | below the threshold | below the threshold | below the threshold | below the threshold | below the threshold | VNKSKLLTDV [KCNA1, Q09470] | pKd (PICK1, Q9NRD5): below the threshold; pKd (NHERF3_3, Q5T2W1): below the threshold; pKd (MAST2, Q6P0Q8): 5.07; pKd (TIAM2, Q8IVF5): 3.95; pKd (IL16_1, Q14005): below the threshold; pKd (MPP6, Q9NZW5): below the threshold; pKd (SCRIB_1, Q14160): 3.87; pKd (LIMK2, P53671): below the threshold; pKd (DLG4_3, P78352): 3.53; pKd (NHERF4_4, Q86UT5): below the threshold
